Assay results: US20200040101A1 (ASKGENE PHARMA, published 2020)

T1: Claudin-23
T1 construct: expressed on transiently transfected HEK 293 cells; the sheet prints only the number after Claudin-1
T1 sequence (Q96B33 1-292, species assumed, looked up): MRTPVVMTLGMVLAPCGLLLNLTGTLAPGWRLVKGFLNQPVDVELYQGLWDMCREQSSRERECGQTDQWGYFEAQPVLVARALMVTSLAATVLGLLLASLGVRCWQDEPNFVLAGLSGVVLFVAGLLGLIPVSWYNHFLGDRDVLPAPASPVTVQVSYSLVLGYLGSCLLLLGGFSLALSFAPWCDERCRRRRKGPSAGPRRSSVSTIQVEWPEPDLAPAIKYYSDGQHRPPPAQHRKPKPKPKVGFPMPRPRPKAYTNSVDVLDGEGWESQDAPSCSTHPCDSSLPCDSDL

T2: Claudin-10
T2 construct: expressed on transiently transfected HEK 293 cells; the sheet prints only the number after Claudin-1
T2 sequence (P78369 1-228, species assumed, looked up): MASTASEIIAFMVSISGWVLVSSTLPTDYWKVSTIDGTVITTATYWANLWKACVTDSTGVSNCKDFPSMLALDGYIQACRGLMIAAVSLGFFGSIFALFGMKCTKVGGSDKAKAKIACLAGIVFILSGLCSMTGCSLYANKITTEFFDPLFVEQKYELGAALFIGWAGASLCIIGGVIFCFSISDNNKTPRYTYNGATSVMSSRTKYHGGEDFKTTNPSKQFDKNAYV

T3: Claudin-19
T3 construct: expressed on transiently transfected HEK 293 cells; the sheet prints only the number after Claudin-1
T3 sequence (Q8N6F1 whole entry, species assumed, looked up): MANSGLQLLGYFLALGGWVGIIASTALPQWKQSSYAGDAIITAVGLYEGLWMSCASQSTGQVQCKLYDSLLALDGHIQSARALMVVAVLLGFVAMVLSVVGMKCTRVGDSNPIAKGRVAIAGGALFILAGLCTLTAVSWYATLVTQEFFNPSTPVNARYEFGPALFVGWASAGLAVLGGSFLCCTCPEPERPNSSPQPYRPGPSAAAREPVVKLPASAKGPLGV

T4: CLDN 7 expressed on HEK 293 cells (UniProt O95471 1-211, limits assumed)
T4 construct: whole, on cells
T4 sequence (looked up): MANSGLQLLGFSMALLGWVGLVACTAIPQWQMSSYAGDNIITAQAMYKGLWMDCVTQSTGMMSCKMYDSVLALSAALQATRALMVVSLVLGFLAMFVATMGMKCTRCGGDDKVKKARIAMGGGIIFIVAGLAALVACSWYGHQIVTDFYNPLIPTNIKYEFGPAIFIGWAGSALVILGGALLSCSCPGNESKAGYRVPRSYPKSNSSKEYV

T5: Claudin-17
T5 construct: expressed on transiently transfected HEK 293 cells; the sheet prints only the number after Claudin-1
T5 sequence (P56750 whole entry, species assumed, looked up): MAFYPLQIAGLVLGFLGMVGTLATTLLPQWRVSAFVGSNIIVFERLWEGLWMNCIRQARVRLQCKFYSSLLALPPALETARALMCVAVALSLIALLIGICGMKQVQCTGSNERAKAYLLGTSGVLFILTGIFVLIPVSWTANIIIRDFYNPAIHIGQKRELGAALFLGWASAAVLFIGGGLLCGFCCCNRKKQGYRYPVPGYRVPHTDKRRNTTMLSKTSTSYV

T6: Claudin-11
T6 construct: expressed on transiently transfected HEK 293 cells; the sheet prints only the number after Claudin-1
T6 sequence (O75508 whole entry, species assumed, looked up): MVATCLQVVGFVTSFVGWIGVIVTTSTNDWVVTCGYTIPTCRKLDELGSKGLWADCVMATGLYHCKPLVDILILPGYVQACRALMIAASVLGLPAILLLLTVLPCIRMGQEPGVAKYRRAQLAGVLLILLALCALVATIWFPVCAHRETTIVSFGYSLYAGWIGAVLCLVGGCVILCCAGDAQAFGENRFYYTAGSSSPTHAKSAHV

T7: Claudin-2
T7 construct: expressed on transiently transfected HEK 293 cells; the sheet prints only the number after Claudin-1
T7 sequence (P57739 whole entry, species assumed, looked up): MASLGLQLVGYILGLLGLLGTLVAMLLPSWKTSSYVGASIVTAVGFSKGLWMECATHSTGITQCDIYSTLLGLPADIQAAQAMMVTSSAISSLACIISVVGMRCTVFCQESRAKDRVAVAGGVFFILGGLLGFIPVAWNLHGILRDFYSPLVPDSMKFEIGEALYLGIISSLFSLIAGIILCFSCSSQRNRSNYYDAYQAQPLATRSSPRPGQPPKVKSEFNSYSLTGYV

T8: Claudin-5
T8 construct: expressed on transiently transfected HEK 293 cells; the sheet prints only the number after Claudin-1
T8 sequence (O00501 whole entry, species assumed, looked up): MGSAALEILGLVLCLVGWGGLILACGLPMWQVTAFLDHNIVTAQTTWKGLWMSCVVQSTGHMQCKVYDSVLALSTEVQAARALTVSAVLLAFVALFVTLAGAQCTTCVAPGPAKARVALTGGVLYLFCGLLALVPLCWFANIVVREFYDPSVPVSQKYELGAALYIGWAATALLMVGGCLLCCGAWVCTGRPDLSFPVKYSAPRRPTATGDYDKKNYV

T9: Claudin-16
T9 construct: expressed on transiently transfected HEK 293 cells; the sheet prints only the number after Claudin-1
T9 sequence (Q9Y5I7 1-235, species assumed, looked up): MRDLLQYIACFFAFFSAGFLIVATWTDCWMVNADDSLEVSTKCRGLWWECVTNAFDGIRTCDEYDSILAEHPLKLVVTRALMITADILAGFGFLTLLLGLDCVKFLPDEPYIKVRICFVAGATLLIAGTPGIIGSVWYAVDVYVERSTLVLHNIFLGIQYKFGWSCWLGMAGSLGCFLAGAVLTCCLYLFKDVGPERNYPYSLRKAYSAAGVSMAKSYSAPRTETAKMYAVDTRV


What was measured:
[1] = target: T10, human Claudin 18.2 (CLDN18.2) expressed on cells (human, UniProt P56856-2 1-261); assay: FACS, hybridoma subclone supernatant, CLDN18.2 and CLDN18.1 cells in one plot
T10 construct: whole, on cells; also called CLD18.2; CLD18A2

[2] = target: T10, human Claudin 18.2 (CLDN18.2) expressed …; assay: FACS, HEK 293 cells expressing CLDN18.2
[3] = target: T10, human Claudin 18.2 (CLDN18.2) expressed …; assay: FACS, transfected HEK 293 cells, second 18.2 column
Claudin-23 = target: T1, Claudin-23; assay: FACS, transfected HEK 293 cells
Claudin-10 = target: T2, Claudin-10; assay: FACS, transfected HEK 293 cells
Claudin-34 = target: T11, Claudin-34; assay: FACS, transfected HEK 293 cells
T11 construct: expressed on transiently transfected HEK 293 cells; the sheet prints only the number after Claudin-1

Claudin-19 = target: T3, Claudin-19; assay: FACS, transfected HEK 293 cells
Claudin-8 = target: T12, Claudin-8; assay: FACS, transfected HEK 293 cells
T12 construct: expressed on transiently transfected HEK 293 cells; the sheet prints only the number after Claudin-1

Claudin-14 = target: T13, Claudin-14; assay: FACS, transfected HEK 293 cells
T13 construct: expressed on transiently transfected HEK 293 cells; the sheet prints only the number after Claudin-1

Claudin-9 = target: T14, Claudin-9; assay: FACS, transfected HEK 293 cells
T14 construct: expressed on transiently transfected HEK 293 cells; the sheet prints only the number after Claudin-1

Claudin-12 = target: T15, Claudin-12; assay: FACS, transfected HEK 293 cells
T15 construct: expressed on transiently transfected HEK 293 cells; the sheet prints only the number after Claudin-1

Claudin-4 = target: T16, Claudin-4; assay: FACS, transfected HEK 293 cells
T16 construct: expressed on transiently transfected HEK 293 cells; the sheet prints only the number after Claudin-1

[4] = target: T4, CLDN 7 expressed on HEK 293 cells; assay: FACS, transfected HEK 293 cells
Claudin-17 = target: T5, Claudin-17; assay: FACS, transfected HEK 293 cells
Claudin-3 = target: T17, Claudin-3; assay: FACS, transfected HEK 293 cells
T17 construct: expressed on transiently transfected HEK 293 cells; the sheet prints only the number after Claudin-1

Claudin-11 = target: T6, Claudin-11; assay: FACS, transfected HEK 293 cells
Claudin-2 = target: T7, Claudin-2; assay: FACS, transfected HEK 293 cells
Claudin-22 = target: T18, Claudin-22; assay: FACS, transfected HEK 293 cells
T18 construct: expressed on transiently transfected HEK 293 cells; the sheet prints only the number after Claudin-1

Claudin-5 = target: T8, Claudin-5; assay: FACS, transfected HEK 293 cells
Claudin-1 = target: T19, Claudin-1; assay: FACS, transfected HEK 293 cells
T19 construct: expressed on transiently transfected HEK 293 cells

Claudin-16 = target: T9, Claudin-16; assay: FACS, transfected HEK 293 cells
[5] = target: T10, human Claudin 18.2 (CLDN18.2) expressed …; assay: FACS, transfected HEK 293 cells, first 18.2 column

MFI [3] | MFI (Claudin-23) | MFI (Claudin-10) | MFI (Claudin-34) | MFI (Claudin-19) | MFI (Claudin-8) | MFI (Claudin-14) | MFI (Claudin-9) | MFI (Claudin-12) | MFI (Claudin-4) | MFI [4] | MFI (Claudin-17) | MFI (Claudin-3) | MFI (Claudin-11) | MFI (Claudin-2) | MFI (Claudin-22) | MFI (Claudin-5) | MFI (Claudin-1) | MFI (Claudin-16) | MFI [5] | Binder | also measured
– | – | – | – | – | – | – | – | – | – | – | – | – | – | – | – | – | – | – | – | 85H12 (mouse hybridoma subclone antibody) (antibody, V domains shown, also remade as chimeric antibody with human IgG1 and kappa) VH: EVKLEESGGGLVQPGGSMKLSCVASGFTFSNYWMNWVRQSPEKGLEWVAEIRLKSKNYATHYAESVKGRFTISRDDSIGSVYLQMNNLRAEDTGIYYCARGHYGTNYGDYWGQGTSVTVSS VL: DIVMTQSPSSLTVTAGEKVTVSCKSSQSLFNSGNQKHYLTWYQQKPGQPPKLLIYRASTRESGVPDRFTGSGSGTDFTLTIRNVQAEDLAVYYCQNDYSFPLTFGAGTKLELK | binding result [1]: binds
4050 | 22 | 23 | 22.3 | 21 | 21.4 | 21.7 | 21.8 | 20.7 | 22 | 22.6 | 21.8 | 23.8 | 20.9 | 21.3 | 29.1 | 20.3 | 22.8 | 24.5 | 3870 | ASK589-B (antibody, human IgG1, kappa, V domains shown, Humanized rabbit antibody (from Clone 46; HC5M1 with LC1M1); also called Molecule B) VH: EVQLVESGGGLVKPGGSLRLSCAVSGFYFNRGYWICWVRQAPGKGLEWIGCIDTGSGVPYYANWAKGRFTISRHTSKTTLTLQMNSLRAEDTASYFCARNSDSIYFNIWGPGTLVTVSS VL: DIVMTQSPSSLSASVGDRVTITCQASQSIGGYISWYQQKPGKAPKLLIYKASTLASGVPSRFSGSGSGTDFTLTISSLQPEDFATYYCQNYAGVSIYGAVFGGGTKVVIKR | EC50 (read off the curve) [2]: ~0.3 µg/mL; binding result [4]: no binding
2810 | 21.7 | 22.3 | 24.1 | 21.3 | 20.8 | 22.4 | 21.7 | 21.6 | 21.8 | 23.4 | 21.9 | 23.3 | 20.3 | 22 | 22.2 | 21.2 | 23.6 | 21.8 | 3610 | M5 (mutated version of M1) (antibody, V domains shown, Humanized mouse antibody from 11E12 (hu11E12VHv1B with hu11E12VLv1); also called ASK-M5_DS; Molecule M5) VH: QVQLVQSGAEVKKPGASVKVSCKASGYTFTSYVINWVRQATGQGLEWIGEIHPRGGNTYYSEKFRGRVTLTADTSISTAYMELSSLRSEDTAVYYCARLRRGNAMDYWDQGTTVTVSS VL: DIVMTQSPSSLAVSLGEMATINCKSSQSLLNSGNQRNYLTWYQQKPGQPPKLLIYWASTRESGVPDRFSGSGSGTDFTLTISSLQAEDVAVYYCQNSYNYPYTFGQGTKLERK | EC50 (read off the curve) [2]: ~0.3 µg/mL
4650 | 19.3 | 23.2 | 20.7 | 20.5 | 20.4 | 20.1 | 20.5 | 21.9 | 20.7 | 21.5 | 21.7 | 21.4 | 19.4 | 22.3 | 21.1 | 20 | 23.4 | 21 | 4820 | ASK589-M1 (antibody, V domains shown, Humanized mouse antibody from 11E12 (hu11E12VHv1 with hu11E12VLv1); also called Molecule M1; M1_DS) VH: QVQLVQSGAEVKKPGASVKVSCKASGYTFTSYVINWVRQATGQGLEWIGEIHPRGGNTYYSEKFRGRVTLTADTSISTAYMELSSLRSEDTAVYYCAILRRGNAMDYWDQGTTVTVSS VL: DIVMTQSPSSLAVSLGEMATINCKSSQSLLNSGNQRNYLTWYQQKPGQPPKLLIYWASTRESGVPDRFSGSGSGTDFTLTISSLQAEDVAVYYCQNSYNYPYTFGQGTKLERK | –
